Biological target: bacterial fusion protein 11-2 (a hybrid of b-galactosidase and human mammary mucin) (human) (UniProt P15941)
Experiment: reciprocal of the competitor concentration giving 50% binding; competition radioimmunoassay on 11-2 fusion protein

B1: murine-human chimeric BrE-3 antibody (antibody, V domains shown)
VH: EVKLEESGGGLVQPGGSMKLSCAASGFTFSDAWMDWVRQSPEKGLEWVAEIRNKANNHATYYDESVKGRFTISRDDSKSRVYLQMISLRAEDTGLYYCTGEFANWGQGTLVTVSA
VL: DVVMTQTPLSLPVSLGDQASISCRSSQNLVHNNGNTYLYWFLQKSGQSPKLLIYRASIRFSGVPDRFSGSGSETDFTLKISRVEAEDLGVYFCFQGTHVPWTFGGGTKLEIK
  Ka: 2.68e+08 M⁻¹

B2: murine BrE-3 monoclonal antibody (antibody, V domains shown)
VH: B1 VH
VL: B1 VL
  Ka: 3.75e+08 M⁻¹

Source: US20060216303A1
